Reference: FireProtDB (doi:10.1006/jmbi.2001.4521)

Conditions: Drosophila melanogaster, pH 6, Thermal, CD, phosphate 50 mM, Na2SO4 0.4 M, whole UniProt chain shown

B1: Growth factor receptor-bound protein 2 wild type, Q08012 (protein)
chain: MEAIAKHDFSATADDELSFRKTQILKILNMEDDSNWYRAELDGKEGLIPSNYIEMKNHDWYYGRITRADAEKLLSNKHEGAFLIRISESSPGDFSLSVKCPDGVQHFKVLRDAQSKFFLWVVKFNSLNELVEYHRTASVSRSQDVKLRDMIPEEMLVQALYDFVPQESGELDFRRGDVITVTDRSDENWWNGEIGNRKGIFPATYVTPYHS
Q: What does the source list for B1?
A: unfolding free energy (25 °C): 1.8 kcal/mol; Tm: 63.7 °C
